This note sets out measurements from US20260167721A1 (ABLEXIS, published 2026).

In assay [1] the target is T1, human CD3 (on human Pan-T cells or donor PBMC) (human, UniProt P07766 23-207; P04234 22-171; P09693 23-182; P20963 22-164). Briefly: cell-based or functional assay.
Assay [2] has as its target T1, human CD3 (on human Pan-T cells or …). Kind of assay: cell-based or functional assay. The source holds these as a separate data set.

T1 sequence (P07766 23-207, chain 1 of 4): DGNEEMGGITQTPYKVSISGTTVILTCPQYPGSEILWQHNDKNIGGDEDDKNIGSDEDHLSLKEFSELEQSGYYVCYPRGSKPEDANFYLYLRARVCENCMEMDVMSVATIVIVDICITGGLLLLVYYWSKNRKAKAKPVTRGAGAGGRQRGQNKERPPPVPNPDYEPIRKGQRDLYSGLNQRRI
T1 sequence (P04234 22-171, chain 2 of 4): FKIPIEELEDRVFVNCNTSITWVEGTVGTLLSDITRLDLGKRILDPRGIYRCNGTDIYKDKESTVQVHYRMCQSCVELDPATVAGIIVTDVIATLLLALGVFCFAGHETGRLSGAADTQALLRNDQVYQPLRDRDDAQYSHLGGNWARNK
T1 sequence (P09693 23-182, chain 3 of 4): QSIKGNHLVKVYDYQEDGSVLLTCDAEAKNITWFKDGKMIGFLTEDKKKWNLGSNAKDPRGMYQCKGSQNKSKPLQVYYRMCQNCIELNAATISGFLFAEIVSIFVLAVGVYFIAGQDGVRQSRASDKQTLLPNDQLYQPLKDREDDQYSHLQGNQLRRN
T1 sequence (P20963 22-164, chain 4 of 4): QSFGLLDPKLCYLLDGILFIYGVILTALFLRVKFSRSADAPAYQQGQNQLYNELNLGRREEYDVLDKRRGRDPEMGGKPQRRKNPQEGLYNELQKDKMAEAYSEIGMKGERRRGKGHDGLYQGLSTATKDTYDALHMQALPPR

B1: CD3 × CD33-BspAb116 (bispecific antibody)
chain 1: NFMLTQPHSVSESPGKTVTISCTRSSGSIASNYVQWYQQRPGSSPTTVIYEDNQRPSGVPDRFSGSIDSSSNSASLTISGLKTEDEAYYYCQSFDSSNRVFGCGTKLTVLGGGGSGGGGSGGGGSGGGGSQVQLQESGPGLVKPSQTLSLTCTVSGGSISSGGYYWSWIRQHPGKCLEWIGYIYYSGSTYYNPSLKSRVTISVDTSKDQFSLKLSSVTAADTAVYYCARERKTSLPFDIWGQGTMVTVSSDKTHTCPPCPAPEFEGGPSVFLFPPKPKDTLMISRTPEVTCVVVDVSHEDPEVKFNWYVDGVEVHNAKTKPREEQYNSTYRVVSVLTVLHQDWLNGKEYKCKVSNKALPASIEKTISKAKGQPREPQVYTLPPCREEMTKNQVSLWCLVKGFYPSDIAVEWESNGQPENNYKTTPPVLDSDGSFFLYSKLTVDKSRWQQGNVFSCSVMHEALHNHYTQKSLSLSPGK
chain 2: EVQLVQSGAEVKKPGSSVKVSCKASGYTITDSNIHWVRQAPGQSLEWIGYIYPYNGGTDYNQKFKNRATLTVDNPTNTAYMELSSLRSEDTAFYYCVNGNPWLAYWGQGTLVTVSSASTKGPSVFPLAPSSKSTSGGTAALGCLVKDYFPEPVTVSWNSGALTSGVHTFPAVLQSSGLYSLSSVVTVPSSSLGTQTYICNVNHKPSNTKVDKRVEPKSCDKTHTCPPCPAPEFEGGPSVFLFPPKPKDTLMISRTPEVTCVVVDVSHEDPEVKFNWYVDGVEVHNAKTKPREEQYNSTYRVVSVLTVLHQDWLNGKEYKCKVSNKALPASIEKTISKAKGQPREPQVCTLPPSREEMTKNQVSLSCAVKGFYPSDIAVEWESNGQPENNYKTTPPVLDSDGSFFLVSKLTVDKSRWQQGNVFSCSVMHEALHNRFTQKSLSLSPGK
chain 3: DIQLTQSPSTLSASVGDRVTITCRASESLDNYGIRFLTWFQQKPGKAPKLLMYAASNQGSGVPSRFSGSGSGTEFTLTISSLQPDDFATYYCQQTKEVPWSFGQGTKVEVKRTVAAPSVFIFPPSDEQLKSGTASVVCLLNNFYPREAKVQWKVDNALQSGNSQESVTEQDSKDSTYSLSSTLTLSKADYEKHKVYACEVTHQGLSSPVTKSFNRGEC
With B1, in assay [1], the “RTCC Assay, Donor 0, EC50” value was found to be 0.126 nM; the “RTCC Assay, Donor 0, gMFI max” value turned out to be 24500 gMFI; the “RTCC Assay, Donor 1, EC50” value came to 0.045 nM; the “RTCC Assay, Donor 1, gMFI max” value turned out to be 66000 gMFI. In addition, in assay [1], the “RTCC Assay, Donor 2, EC50” value was determined as 0.121 nM; the “RTCC Assay, Donor 2, gMFI max” value came to 52800 gMFI; the “RTCC Assay, Donor 3, EC50” value was 0.171 nM; the “RTCC Assay, Donor 3, gMFI max” value was 65800 gMFI. In addition, in assay [2], the “Cytokine Release Assay (IFNγ), Donor 0, gMFI max” value worked out at 187000 gMFI; the “Cytokine Release Assay (IFNγ), Donor 1, gMFI max” value was 5440 gMFI; the “Cytokine Release Assay (IFNγ), Donor 2, EC50” value worked out at 0.177 nM; the “Cytokine Release Assay (IFNγ), Donor 2, gMFI max” value amounted to 14100 gMFI. Also, in assay [2], the “Cytokine Release Assay (IFNγ), Donor 3, EC50” value turned out to be 1.51 nM and the “Cytokine Release Assay (IFNγ), Donor 3, gMFI max” value is 167000 gMFI.

B2: CD3 × CD33-BspAb38 (bispecific antibody)
chain 1: not shown
chain 2: EVQLVQSGAEVKKPGSSVKVSCKASGYTITDSNIHWVRQAPGQSLEWIGYIYPYNGGTDYNQKFKNRATLTVDNPTNTAYMELSSLRSEDTAFYYCVNGNPWLAYWGQGTLVTVSSASTKGPSVFPLAPSSKSTSGGTAALGCLVKDYFPEPVTVSWNSGALTSGVHTFPAVLQSSGLYSLSSVVTVPSSSLGTQTYICNVNHKPSNTKVDKRVEPKSCDKTHTCPPCPAPEFEGGPSVFLFPPKPKDTLMISRTPEVTCVVVDVSHEDPEVKFNWYVDGVEVHNAKTKPREEQYNSTYRVVSVLTVLHQDWLNGKEYKCKVSNKALPASIEKTISKAKGQPREPQVCTLPPSREEMTKNQVSLSCAVKGFYPSDIAVEWESNGQPENNYKTTPPVLDSDGSFFLVSKLTVDKSRWQQGNVFSCSVMHEALHNRFTQKSLSLSPGK
chain 3: DIQLTQSPSTLSASVGDRVTITCRASESLDNYGIRFLTWFQQKPGKAPKLLMYAASNQGSGVPSRFSGSGSGTEFTLTISSLQPDDFATYYCQQTKEVPWSFGQGTKVEVKRTVAAPSVFIFPPSDEQLKSGTASVVCLLNNFYPREAKVQWKVDNALQSGNSQESVTEQDSKDSTYSLSSTLTLSKADYEKHKVYACEVTHQGLSSPVTKSFNRGEC
With B2, in assay [1], the “RTCC Assay, Donor 0, EC50” value worked out at 1.49 nM; the “RTCC Assay, Donor 0, gMFI max” value was 23300 gMFI; the “RTCC Assay, Donor 1, EC50” value stood at 0.413 nM; the “RTCC Assay, Donor 1, gMFI max” value stood at 64800 gMFI. Moreover, in assay [1], the “RTCC Assay, Donor 2, EC50” value was determined as 0.717 nM; the “RTCC Assay, Donor 2, gMFI max” value was 50500 gMFI; the “RTCC Assay, Donor 3, EC50” value amounted to 1.72 nM; the “RTCC Assay, Donor 3, gMFI max” value was 75800 gMFI. Further, in assay [2], the “Cytokine Release Assay (IFNγ), Donor 0, EC50” value stood at 8.38 nM; the “Cytokine Release Assay (IFNγ), Donor 0, gMFI max” value is 555000 gMFI; the “Cytokine Release Assay (IFNγ), Donor 1, gMFI max” value is 4320 gMFI; the “Cytokine Release Assay (IFNγ), Donor 2, EC50” value was determined as 13.4 nM. Moreover, in assay [2], the “Cytokine Release Assay (IFNγ), Donor 2, gMFI max” value was 18000 gMFI; the “Cytokine Release Assay (IFNγ), Donor 3, EC50” value was 6.38 nM; the “Cytokine Release Assay (IFNγ), Donor 3, gMFI max” value was determined as 98500 gMFI.

B3: CD3 × CD33-BspAb45 (bispecific antibody)
chain 1: EVQLVESGGGLVQPGGSLRLSCAASGFTFSRYSMNWVRQAPGKCLEWVSYISSSSSSIYYADSVKGRFTISRDNAKNSLYLQMNSLRDEDTAVYYCARDRRATLDYWGQGTLVTVSSGGGGSGGGGSGGGGSGGGGSNFMLTQPHSVSESPGKTVTISCTRSSGSIASNYVQWYQQRPGSSPTTVIYEDNQRPSGVPDRFSGSIDSSSNSASLTISGLKTEDEADYYCQSYDSSNHVFGCGTKLTVLDKTHTCPPCPAPEFEGGPSVFLFPPKPKDTLMISRTPEVTCVVVDVSHEDPEVKFNWYVDGVEVHNAKTKPREEQYNSTYRVVSVLTVLHQDWLNGKEYKCKVSNKALPASIEKTISKAKGQPREPQVYTLPPCREEMTKNQVSLWCLVKGFYPSDIAVEWESNGQPENNYKTTPPVLDSDGSFFLYSKLTVDKSRWQQGNVFSCSVMHEALHNHYTQKSLSLSPGK
chain 2: EVQLVQSGAEVKKPGSSVKVSCKASGYTITDSNIHWVRQAPGQSLEWIGYIYPYNGGTDYNQKFKNRATLTVDNPTNTAYMELSSLRSEDTAFYYCVNGNPWLAYWGQGTLVTVSSASTKGPSVFPLAPSSKSTSGGTAALGCLVKDYFPEPVTVSWNSGALTSGVHTFPAVLQSSGLYSLSSVVTVPSSSLGTQTYICNVNHKPSNTKVDKRVEPKSCDKTHTCPPCPAPEFEGGPSVFLFPPKPKDTLMISRTPEVTCVVVDVSHEDPEVKFNWYVDGVEVHNAKTKPREEQYNSTYRVVSVLTVLHQDWLNGKEYKCKVSNKALPASIEKTISKAKGQPREPQVCTLPPSREEMTKNQVSLSCAVKGFYPSDIAVEWESNGQPENNYKTTPPVLDSDGSFFLVSKLTVDKSRWQQGNVFSCSVMHEALHNRFTQKSLSLSPGK
chain 3: DIQLTQSPSTLSASVGDRVTITCRASESLDNYGIRFLTWFQQKPGKAPKLLMYAASNQGSGVPSRFSGSGSGTEFTLTISSLQPDDFATYYCQQTKEVPWSFGQGTKVEVKRTVAAPSVFIFPPSDEQLKSGTASVVCLLNNFYPREAKVQWKVDNALQSGNSQESVTEQDSKDSTYSLSSTLTLSKADYEKHKVYACEVTHQGLSSPVTKSFNRGEC
As for B3, in assay [1], the “RTCC Assay, Donor 0, EC50” value came out at 0.03 nM; the “RTCC Assay, Donor 0, gMFI max” value was found to be 23300 gMFI; the “RTCC Assay, Donor 1, EC50” value stood at 0.004 nM; the “RTCC Assay, Donor 1, gMFI max” value is 76100 gMFI. In assay [1], the “RTCC Assay, Donor 2, EC50” value was determined as 0.012 nM; the “RTCC Assay, Donor 2, gMFI max” value worked out at 55900 gMFI; the “RTCC Assay, Donor 3, EC50” value is 0.02 nM; the “RTCC Assay, Donor 3, gMFI max” value was found to be 86700 gMFI. Also, in assay [2], the “Cytokine Release Assay (IFNγ), Donor 0, EC50” value was found to be 0.096 nM; the “Cytokine Release Assay (IFNγ), Donor 0, gMFI max” value was 1.39e+06 gMFI; the “Cytokine Release Assay (IFNγ), Donor 1, gMFI max” value came to 4630 gMFI; the “Cytokine Release Assay (IFNγ), Donor 2, EC50” value was determined as 0.0684 nM. Besides, in assay [2], the “Cytokine Release Assay (IFNγ), Donor 2, gMFI max” value was found to be 26900 gMFI and the “Cytokine Release Assay (IFNγ), Donor 3, gMFI max” value was 290000 gMFI.

B4: CD3 × CD33-BspAb37 (bispecific antibody)
chain 1: not shown
chain 2: EVQLVQSGAEVKKPGSSVKVSCKASGYTITDSNIHWVRQAPGQSLEWIGYIYPYNGGTDYNQKFKNRATLTVDNPTNTAYMELSSLRSEDTAFYYCVNGNPWLAYWGQGTLVTVSSASTKGPSVFPLAPSSKSTSGGTAALGCLVKDYFPEPVTVSWNSGALTSGVHTFPAVLQSSGLYSLSSVVTVPSSSLGTQTYICNVNHKPSNTKVDKRVEPKSCDKTHTCPPCPAPEFEGGPSVFLFPPKPKDTLMISRTPEVTCVVVDVSHEDPEVKFNWYVDGVEVHNAKTKPREEQYNSTYRVVSVLTVLHQDWLNGKEYKCKVSNKALPASIEKTISKAKGQPREPQVCTLPPSREEMTKNQVSLSCAVKGFYPSDIAVEWESNGQPENNYKTTPPVLDSDGSFFLVSKLTVDKSRWQQGNVFSCSVMHEALHNRFTQKSLSLSPGK
chain 3: DIQLTQSPSTLSASVGDRVTITCRASESLDNYGIRFLTWFQQKPGKAPKLLMYAASNQGSGVPSRFSGSGSGTEFTLTISSLQPDDFATYYCQQTKEVPWSFGQGTKVEVKRTVAAPSVFIFPPSDEQLKSGTASVVCLLNNFYPREAKVQWKVDNALQSGNSQESVTEQDSKDSTYSLSSTLTLSKADYEKHKVYACEVTHQGLSSPVTKSFNRGEC
Consider B4, for which, in assay [1], the “RTCC Assay, Donor 0, EC50” value worked out at 0.172 nM; the “RTCC Assay, Donor 0, gMFI max” value was 31600 gMFI; the “RTCC Assay, Donor 1, EC50” value came to 0.01 nM; the “RTCC Assay, Donor 1, gMFI max” value amounted to 70600 gMFI. Further, in assay [1], the “RTCC Assay, Donor 2, EC50” value turned out to be 0.042 nM; the “RTCC Assay, Donor 2, gMFI max” value turned out to be 59200 gMFI; the “RTCC Assay, Donor 3, EC50” value turned out to be 0.053 nM; the “RTCC Assay, Donor 3, gMFI max” value came out at 82300 gMFI. For the same molecule, in assay [2], the “Cytokine Release Assay (IFNγ), Donor 0, EC50” value is 0.252 nM; the “Cytokine Release Assay (IFNγ), Donor 0, gMFI max” value was found to be 1.06e+06 gMFI; the “Cytokine Release Assay (IFNγ), Donor 1, gMFI max” value worked out at 5560 gMFI; the “Cytokine Release Assay (IFNγ), Donor 2, EC50” value amounted to 0.14 nM. Further, in assay [2], the “Cytokine Release Assay (IFNγ), Donor 2, gMFI max” value came out at 32900 gMFI; the “Cytokine Release Assay (IFNγ), Donor 3, EC50” value was 1.76 nM; the “Cytokine Release Assay (IFNγ), Donor 3, gMFI max” value is 317000 gMFI.
